Test results reported in patent US20240376151A1, “STAPLED PEPTIDES AND METHODS THEREOF” (FOG PHARMACEUTICALS, INC., priority 2022, published 2024).
Bridge positions count the residues as written; N and C are the ends.

Molecular target: T1, RNF31 PUB domain (Homo sapiens, UniProt Q96EP0)
T1 construct: MBP-TEV (N, cleaved yes); made in house; host or cells: E. coli BL21 (DE3) pLysS
T1 sequence (Q96EP0 1-179): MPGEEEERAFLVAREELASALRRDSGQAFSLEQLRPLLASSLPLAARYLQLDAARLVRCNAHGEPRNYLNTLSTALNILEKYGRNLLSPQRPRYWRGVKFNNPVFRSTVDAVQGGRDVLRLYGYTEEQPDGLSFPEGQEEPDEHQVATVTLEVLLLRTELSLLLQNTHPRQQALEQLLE
Test: Phage Library Screening with NGS, RNF31 PUB domain
Assay type: binding
Conditions: for Phage library screen NGS readout, Target Concentration 10 / Phage library screen NGS readout, Target Concentration 30 / Phage library screen NGS readout, Target Concentration 100 / Phage library screen NGS readout, Target Concentration 300 / Phage library screen NGS readout, Target Concentration 1000: RNF31 PUB domain clusters C41-C45; for Phage library screen NGS readout, BLANK: clusters C41-C45

[1] = target concentration 1000, first column
[2] = target concentration 1000, second column

DPAFWECMYAASDCDAS
Phage library screen NGS readout, Target Concentration 10: 0 | Phage library screen NGS readout, Target Concentration 30: 0 | Phage library screen NGS readout, Target Concentration 100: 1 | Phage library screen NGS readout, Target Concentration 300: 2 | Phage library screen NGS readout, Target Concentration 1000 [1]: 6 | Phage library screen NGS readout, Target Concentration 1000 [2]: 4 | Phage library screen NGS readout, BLANK (column 1 of 5): 1 | Phage library screen NGS readout, BLANK (column 2 of 5): 0 | Phage library screen NGS readout, BLANK (column 3 of 5): 0 | Phage library screen NGS readout, BLANK (column 4 of 5): 0 | Phage library screen NGS readout, BLANK (column 5 of 5): 2

DPAHANCQLAADVCSTY
Phage library screen NGS readout, Target Concentration 10: 0 | Phage library screen NGS readout, Target Concentration 30: 0 | Phage library screen NGS readout, Target Concentration 100: 0 | Phage library screen NGS readout, Target Concentration 300: 13 | Phage library screen NGS readout, Target Concentration 1000 [1]: 49 | Phage library screen NGS readout, Target Concentration 1000 [2]: 33 | Phage library screen NGS readout, BLANK (column 1 of 5): 1 | Phage library screen NGS readout, BLANK (column 2 of 5): 0 | Phage library screen NGS readout, BLANK (column 3 of 5): 0 | Phage library screen NGS readout, BLANK (column 4 of 5): 0 | Phage library screen NGS readout, BLANK (column 5 of 5): 0

DPAHDWCLYAAYDCRVY
Phage library screen NGS readout, Target Concentration 10: 0 | Phage library screen NGS readout, Target Concentration 30: 0 | Phage library screen NGS readout, Target Concentration 100: 1 | Phage library screen NGS readout, Target Concentration 300: 2 | Phage library screen NGS readout, Target Concentration 1000 [1]: 15 | Phage library screen NGS readout, Target Concentration 1000 [2]: 8 | Phage library screen NGS readout, BLANK (column 1 of 5): 0 | Phage library screen NGS readout, BLANK (column 2 of 5): 0 | Phage library screen NGS readout, BLANK (column 3 of 5): 0 | Phage library screen NGS readout, BLANK (column 4 of 5): 0 | Phage library screen NGS readout, BLANK (column 5 of 5): 0

DPAHTWCMYAAFDCFES
Phage library screen NGS readout, Target Concentration 10: 1 | Phage library screen NGS readout, Target Concentration 30: 0 | Phage library screen NGS readout, Target Concentration 100: 0 | Phage library screen NGS readout, Target Concentration 300: 1 | Phage library screen NGS readout, Target Concentration 1000 [1]: 9 | Phage library screen NGS readout, Target Concentration 1000 [2]: 4 | Phage library screen NGS readout, BLANK (column 1 of 5): 1 | Phage library screen NGS readout, BLANK (column 2 of 5): 2 | Phage library screen NGS readout, BLANK (column 3 of 5): 2 | Phage library screen NGS readout, BLANK (column 4 of 5): 0 | Phage library screen NGS readout, BLANK (column 5 of 5): 0

DPAIAQCMLAAQVCSTY
Phage library screen NGS readout, Target Concentration 10: 2 | Phage library screen NGS readout, Target Concentration 30: 0 | Phage library screen NGS readout, Target Concentration 100: 0 | Phage library screen NGS readout, Target Concentration 300: 5 | Phage library screen NGS readout, Target Concentration 1000 [1]: 54 | Phage library screen NGS readout, Target Concentration 1000 [2]: 34 | Phage library screen NGS readout, BLANK (column 1 of 5): 1 | Phage library screen NGS readout, BLANK (column 2 of 5): 0 | Phage library screen NGS readout, BLANK (column 3 of 5): 0 | Phage library screen NGS readout, BLANK (column 4 of 5): 0 | Phage library screen NGS readout, BLANK (column 5 of 5): 0

DPAIDACYDAAVMCTYV
Phage library screen NGS readout, Target Concentration 10: 0 | Phage library screen NGS readout, Target Concentration 30: 0 | Phage library screen NGS readout, Target Concentration 100: 0 | Phage library screen NGS readout, Target Concentration 300: 6 | Phage library screen NGS readout, Target Concentration 1000 [1]: 27 | Phage library screen NGS readout, Target Concentration 1000 [2]: 15 | Phage library screen NGS readout, BLANK (column 1 of 5): 0 | Phage library screen NGS readout, BLANK (column 2 of 5): 0 | Phage library screen NGS readout, BLANK (column 3 of 5): 0 | Phage library screen NGS readout, BLANK (column 4 of 5): 0 | Phage library screen NGS readout, BLANK (column 5 of 5): 4

DPAIQECLLAAATCWTY
Phage library screen NGS readout, Target Concentration 10: 0 | Phage library screen NGS readout, Target Concentration 30: 0 | Phage library screen NGS readout, Target Concentration 100: 0 | Phage library screen NGS readout, Target Concentration 300: 2 | Phage library screen NGS readout, Target Concentration 1000 [1]: 8 | Phage library screen NGS readout, Target Concentration 1000 [2]: 4 | Phage library screen NGS readout, BLANK (column 1 of 5): 0 | Phage library screen NGS readout, BLANK (column 2 of 5): 0 | Phage library screen NGS readout, BLANK (column 3 of 5): 0 | Phage library screen NGS readout, BLANK (column 4 of 5): 0 | Phage library screen NGS readout, BLANK (column 5 of 5): 0

DPAIQECYLAAQVCTTY
Phage library screen NGS readout, Target Concentration 10: 0 | Phage library screen NGS readout, Target Concentration 30: 0 | Phage library screen NGS readout, Target Concentration 100: 0 | Phage library screen NGS readout, Target Concentration 300: 4 | Phage library screen NGS readout, Target Concentration 1000 [1]: 14 | Phage library screen NGS readout, Target Concentration 1000 [2]: 13 | Phage library screen NGS readout, BLANK (column 1 of 5): 0 | Phage library screen NGS readout, BLANK (column 2 of 5): 0 | Phage library screen NGS readout, BLANK (column 3 of 5): 0 | Phage library screen NGS readout, BLANK (column 4 of 5): 0 | Phage library screen NGS readout, BLANK (column 5 of 5): 0

DPAIRECMLAALVCSTY
Phage library screen NGS readout, Target Concentration 10: 0 | Phage library screen NGS readout, Target Concentration 30: 1 | Phage library screen NGS readout, Target Concentration 100: 3 | Phage library screen NGS readout, Target Concentration 300: 10 | Phage library screen NGS readout, Target Concentration 1000 [1]: 42 | Phage library screen NGS readout, Target Concentration 1000 [2]: 49 | Phage library screen NGS readout, BLANK (column 1 of 5): 0 | Phage library screen NGS readout, BLANK (column 2 of 5): 0 | Phage library screen NGS readout, BLANK (column 3 of 5): 0 | Phage library screen NGS readout, BLANK (column 4 of 5): 1 | Phage library screen NGS readout, BLANK (column 5 of 5): 0

DPAIVQCAWAALYCDMQ (Ac-DPAIVQCAWAALYCDMQ-NH2; bridge 7-14; also: Cys-Cys staple, linker not named)
Phage library screen NGS readout, Target Concentration 10: 0 | Phage library screen NGS readout, Target Concentration 30: 0 | Phage library screen NGS readout, Target Concentration 100: 0 | Phage library screen NGS readout, Target Concentration 300: 7 | Phage library screen NGS readout, Target Concentration 1000 [1]: 22 | Phage library screen NGS readout, Target Concentration 1000 [2]: 20 | Phage library screen NGS readout, BLANK (column 1 of 5): 0 | Phage library screen NGS readout, BLANK (column 2 of 5): 0 | Phage library screen NGS readout, BLANK (column 3 of 5): 0 | Phage library screen NGS readout, BLANK (column 4 of 5): 0 | Phage library screen NGS readout, BLANK (column 5 of 5): 0

DPAIWECVSAAAVCMTY
Phage library screen NGS readout, Target Concentration 10: 0 | Phage library screen NGS readout, Target Concentration 30: 0 | Phage library screen NGS readout, Target Concentration 100: 0 | Phage library screen NGS readout, Target Concentration 300: 2 | Phage library screen NGS readout, Target Concentration 1000 [1]: 7 | Phage library screen NGS readout, Target Concentration 1000 [2]: 7 | Phage library screen NGS readout, BLANK (column 1 of 5): 0 | Phage library screen NGS readout, BLANK (column 2 of 5): 0 | Phage library screen NGS readout, BLANK (column 3 of 5): 0 | Phage library screen NGS readout, BLANK (column 4 of 5): 1 | Phage library screen NGS readout, BLANK (column 5 of 5): 0

DPAIYQCSLAADICSTY
Phage library screen NGS readout, Target Concentration 10: 1 | Phage library screen NGS readout, Target Concentration 30: 3 | Phage library screen NGS readout, Target Concentration 100: 3 | Phage library screen NGS readout, Target Concentration 300: 3 | Phage library screen NGS readout, Target Concentration 1000 [1]: 7 | Phage library screen NGS readout, Target Concentration 1000 [2]: 8 | Phage library screen NGS readout, BLANK (column 1 of 5): 2 | Phage library screen NGS readout, BLANK (column 2 of 5): 2 | Phage library screen NGS readout, BLANK (column 3 of 5): 0 | Phage library screen NGS readout, BLANK (column 4 of 5): 0 | Phage library screen NGS readout, BLANK (column 5 of 5): 0

DPALDYCLYAAYDCMYA
Phage library screen NGS readout, Target Concentration 10: 0 | Phage library screen NGS readout, Target Concentration 30: 0 | Phage library screen NGS readout, Target Concentration 100: 0 | Phage library screen NGS readout, Target Concentration 300: 3 | Phage library screen NGS readout, Target Concentration 1000 [1]: 5 | Phage library screen NGS readout, Target Concentration 1000 [2]: 12 | Phage library screen NGS readout, BLANK (column 1 of 5): 0 | Phage library screen NGS readout, BLANK (column 2 of 5): 3 | Phage library screen NGS readout, BLANK (column 3 of 5): 0 | Phage library screen NGS readout, BLANK (column 4 of 5): 0 | Phage library screen NGS readout, BLANK (column 5 of 5): 0

DPALEDCQWAALYCDEY
Phage library screen NGS readout, Target Concentration 10: 0 | Phage library screen NGS readout, Target Concentration 30: 0 | Phage library screen NGS readout, Target Concentration 100: 1 | Phage library screen NGS readout, Target Concentration 300: 2 | Phage library screen NGS readout, Target Concentration 1000 [1]: 7 | Phage library screen NGS readout, Target Concentration 1000 [2]: 9 | Phage library screen NGS readout, BLANK (column 1 of 5): 1 | Phage library screen NGS readout, BLANK (column 2 of 5): 1 | Phage library screen NGS readout, BLANK (column 3 of 5): 1 | Phage library screen NGS readout, BLANK (column 4 of 5): 0 | Phage library screen NGS readout, BLANK (column 5 of 5): 0
